Laboratory results: article PMC10281526, “Polydom/SVEP1 binds to Tie1 and promotes migration of lymphatic endothelial cells” (The Journal of Cell Biology, 2023)
Blank lines part the entries; values can stand above or below the molecule they belong to.

Columns and labels:
[1] = target: recombinant Tie1 extracellular domain, Fc fusion protein (UniProt P35590)
[2] = target: T1, recombinant full-length mouse Polydom (mouse, UniProt A2AVA0 18-3567); assay: ELISA; reverse solid-phase binding assay, titration: full-length Polydom coated (10 nM by the legend), serially diluted Tie1-Fc or Tie2-Fc in solution, detected with HRP anti-human IgG against the Fc tag; apparent dissociation constant; conditions: both partners purified
T1 construct: Polydom (SVEP1), mouse, full length; expression vector as in Sato-Nishiuchi et al., 2012; The construct is described in Sato-Nishiuchi et al., 2012; also called SVEP1; full-length Polydom
T1 sequence (A2AVA0 18-3567): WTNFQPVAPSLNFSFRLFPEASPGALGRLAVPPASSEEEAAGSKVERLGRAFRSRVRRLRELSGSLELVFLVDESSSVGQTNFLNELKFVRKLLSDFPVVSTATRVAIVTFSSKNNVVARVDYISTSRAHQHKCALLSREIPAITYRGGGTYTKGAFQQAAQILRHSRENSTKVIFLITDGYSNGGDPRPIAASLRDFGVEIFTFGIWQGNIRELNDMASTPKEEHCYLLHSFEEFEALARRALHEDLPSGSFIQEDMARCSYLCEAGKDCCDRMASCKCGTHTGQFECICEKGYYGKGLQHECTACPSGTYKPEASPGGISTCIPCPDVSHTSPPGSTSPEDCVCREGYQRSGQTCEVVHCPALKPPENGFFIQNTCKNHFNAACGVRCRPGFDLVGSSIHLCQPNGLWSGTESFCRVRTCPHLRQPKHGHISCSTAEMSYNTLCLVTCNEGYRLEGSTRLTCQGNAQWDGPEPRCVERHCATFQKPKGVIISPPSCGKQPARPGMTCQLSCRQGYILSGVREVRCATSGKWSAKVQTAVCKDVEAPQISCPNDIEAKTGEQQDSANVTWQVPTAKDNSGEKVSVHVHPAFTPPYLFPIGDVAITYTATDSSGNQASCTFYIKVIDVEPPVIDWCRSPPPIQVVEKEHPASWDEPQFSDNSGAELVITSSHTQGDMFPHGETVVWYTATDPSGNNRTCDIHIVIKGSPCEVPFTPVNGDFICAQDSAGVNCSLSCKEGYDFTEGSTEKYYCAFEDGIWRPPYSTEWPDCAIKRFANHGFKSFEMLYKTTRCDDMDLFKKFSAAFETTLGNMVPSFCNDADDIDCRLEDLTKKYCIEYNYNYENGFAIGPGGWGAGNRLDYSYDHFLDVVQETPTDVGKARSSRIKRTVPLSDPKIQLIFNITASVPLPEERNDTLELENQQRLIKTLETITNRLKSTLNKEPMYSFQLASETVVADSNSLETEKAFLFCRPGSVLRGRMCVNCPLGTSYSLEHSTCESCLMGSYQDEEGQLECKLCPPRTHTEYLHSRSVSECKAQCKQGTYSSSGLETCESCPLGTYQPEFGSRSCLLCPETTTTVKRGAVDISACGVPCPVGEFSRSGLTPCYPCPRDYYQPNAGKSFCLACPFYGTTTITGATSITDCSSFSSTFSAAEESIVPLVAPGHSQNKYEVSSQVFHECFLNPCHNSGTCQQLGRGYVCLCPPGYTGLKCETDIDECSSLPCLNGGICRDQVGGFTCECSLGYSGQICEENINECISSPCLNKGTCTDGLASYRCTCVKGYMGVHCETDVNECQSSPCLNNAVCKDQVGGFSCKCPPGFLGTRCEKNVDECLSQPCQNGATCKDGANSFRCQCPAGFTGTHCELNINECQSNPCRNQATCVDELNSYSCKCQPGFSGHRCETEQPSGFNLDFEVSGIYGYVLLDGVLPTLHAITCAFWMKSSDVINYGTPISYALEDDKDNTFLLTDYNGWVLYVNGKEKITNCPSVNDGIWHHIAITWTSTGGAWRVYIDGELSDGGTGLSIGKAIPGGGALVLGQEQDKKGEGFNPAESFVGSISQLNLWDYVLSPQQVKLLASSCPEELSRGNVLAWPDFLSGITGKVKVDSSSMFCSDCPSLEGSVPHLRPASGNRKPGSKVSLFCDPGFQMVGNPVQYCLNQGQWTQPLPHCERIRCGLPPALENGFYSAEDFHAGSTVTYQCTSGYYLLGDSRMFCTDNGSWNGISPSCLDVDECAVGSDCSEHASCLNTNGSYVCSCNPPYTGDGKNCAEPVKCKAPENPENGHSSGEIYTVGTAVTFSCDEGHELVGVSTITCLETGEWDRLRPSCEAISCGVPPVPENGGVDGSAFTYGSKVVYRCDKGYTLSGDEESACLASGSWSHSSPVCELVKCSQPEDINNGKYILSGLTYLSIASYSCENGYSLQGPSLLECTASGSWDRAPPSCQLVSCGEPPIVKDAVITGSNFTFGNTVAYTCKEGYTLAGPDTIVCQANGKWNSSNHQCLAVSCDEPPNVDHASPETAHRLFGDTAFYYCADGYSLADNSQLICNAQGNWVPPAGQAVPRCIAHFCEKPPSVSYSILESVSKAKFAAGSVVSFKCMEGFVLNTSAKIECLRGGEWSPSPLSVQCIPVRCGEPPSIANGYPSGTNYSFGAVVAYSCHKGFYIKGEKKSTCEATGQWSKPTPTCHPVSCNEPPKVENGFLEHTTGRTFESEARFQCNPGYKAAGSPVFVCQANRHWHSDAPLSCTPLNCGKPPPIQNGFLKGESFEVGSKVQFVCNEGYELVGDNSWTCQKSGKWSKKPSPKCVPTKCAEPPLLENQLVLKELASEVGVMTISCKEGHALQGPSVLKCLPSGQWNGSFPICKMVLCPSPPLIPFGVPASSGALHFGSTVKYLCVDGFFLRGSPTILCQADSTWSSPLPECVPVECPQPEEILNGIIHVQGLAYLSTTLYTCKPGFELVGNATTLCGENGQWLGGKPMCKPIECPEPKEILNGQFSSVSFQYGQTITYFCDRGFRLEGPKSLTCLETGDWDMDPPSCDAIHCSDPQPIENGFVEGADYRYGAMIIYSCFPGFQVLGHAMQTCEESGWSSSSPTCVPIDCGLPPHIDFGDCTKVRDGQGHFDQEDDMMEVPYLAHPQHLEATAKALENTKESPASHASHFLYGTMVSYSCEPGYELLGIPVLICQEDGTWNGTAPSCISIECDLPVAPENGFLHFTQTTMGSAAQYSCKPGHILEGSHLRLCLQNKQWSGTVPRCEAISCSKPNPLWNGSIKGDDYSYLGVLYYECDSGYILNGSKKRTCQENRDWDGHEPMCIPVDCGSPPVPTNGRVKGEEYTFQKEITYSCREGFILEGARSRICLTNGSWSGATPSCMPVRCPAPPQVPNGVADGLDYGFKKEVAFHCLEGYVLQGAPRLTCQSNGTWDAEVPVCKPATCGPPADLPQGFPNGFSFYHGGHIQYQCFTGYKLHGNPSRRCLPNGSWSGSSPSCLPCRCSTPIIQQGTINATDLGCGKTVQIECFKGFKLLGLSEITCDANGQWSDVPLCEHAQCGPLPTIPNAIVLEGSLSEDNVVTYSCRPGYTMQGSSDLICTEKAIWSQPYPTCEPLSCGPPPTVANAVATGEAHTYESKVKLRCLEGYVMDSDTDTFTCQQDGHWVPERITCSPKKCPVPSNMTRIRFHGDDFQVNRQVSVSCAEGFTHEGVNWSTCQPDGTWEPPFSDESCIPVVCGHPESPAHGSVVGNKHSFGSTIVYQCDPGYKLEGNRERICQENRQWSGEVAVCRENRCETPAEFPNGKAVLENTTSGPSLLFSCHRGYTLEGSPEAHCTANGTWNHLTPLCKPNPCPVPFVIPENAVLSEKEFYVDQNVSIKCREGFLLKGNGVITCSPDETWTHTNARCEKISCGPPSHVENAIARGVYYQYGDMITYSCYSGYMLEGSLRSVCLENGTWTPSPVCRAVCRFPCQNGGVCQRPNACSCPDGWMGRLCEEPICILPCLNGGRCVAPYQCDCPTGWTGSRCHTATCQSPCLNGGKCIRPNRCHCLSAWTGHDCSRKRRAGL

[3] = target: T2, Tie2 (Homo sapiens (Human), UniProt Q02763); assay: solid-phase ELISA, Tie-Fc dimers on coated SVEP1
T2 chain: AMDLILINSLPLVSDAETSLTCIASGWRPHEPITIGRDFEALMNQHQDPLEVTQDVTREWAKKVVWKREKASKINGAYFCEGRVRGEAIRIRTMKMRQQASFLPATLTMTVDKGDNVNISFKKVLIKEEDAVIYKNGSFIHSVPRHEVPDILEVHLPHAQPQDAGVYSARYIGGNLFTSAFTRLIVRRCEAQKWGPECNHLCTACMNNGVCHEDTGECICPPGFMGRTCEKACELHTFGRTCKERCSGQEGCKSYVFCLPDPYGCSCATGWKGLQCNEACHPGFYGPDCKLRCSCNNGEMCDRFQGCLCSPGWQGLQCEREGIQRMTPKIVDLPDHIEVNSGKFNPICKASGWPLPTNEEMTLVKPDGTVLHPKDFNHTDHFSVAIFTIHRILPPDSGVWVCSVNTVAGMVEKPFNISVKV

Transwell migration of human dermal LECs toward Polydom/E2567A (1 μg/ml) in the lower chamber, reduction compared with control Polydom [1]: 80%
Molecule: full-length Polydom E2567A mutant, A2AVA0 18-3567

Kd [2]: 43 ± 4 nM
B1: recombinant Tie1 extracellular domain, Fc fusion protein (Fc fusion, UniProt P35590 22-759, looked up)
chain: AVDLTLLANLRLTDPQRFFLTCVSGEAGAGRGSDAWGPPLLLEKDDRIVRTPPGPPLRLARNGSHQVTLRGFSKPSDLVGVFSCVGGAGARRTRVIYVHNSPGAHLLPDKVTHTVNKGDTAVLSARVHKEKQTDVIWKSNGSYFYTLDWHEAQDGRFLLQLPNVQPPSSGIYSATYLEASPLGSAFFRLIVRGCGAGRWGPGCTKECPGCLHGGVCHDHDGECVCPPGFTGTRCEQACREGRFGQSCQEQCPGISGCRGLTFCLPDPYGCSCGSGWRGSQCQEACAPGHFGADCRLQCQCQNGGTCDRFSGCVCPSGWHGVHCEKSDRIPQILNMASELEFNLETMPRINCAAAGNPFPVRGSIELRKPDGTVLLSTKAIVEPEKTTAEFEVPRLVLADSGFWECRVSTSGGQDSRRFKVNVKVPPVPLAAPRLLTKQSRQLVVSPLVSFSGDGPISTVRLHYRPQDSTMDWSTIVVDPSENVTLMNLRPKTGYSVRVQLSRPGEGGEGAWGPPTLMTTDCPEPLLQPWLEGWHVEGTDRLRVSWSLPLVPGPLVGDGFLLRLWDGTRGQERRENVSSPQARTALLTGLTPGTHYQLDVQLYHCTLLGPASPPAHVLLPPSGPPAPRHLHAQALSDSEIQLTWKHPEALPGPISKYVVEVQVAGGAGDPLWIDVDRPEETSTIIRGLNASTRYLFRMRASIQGLGDWSNTVEESTLGNGLQAEGPVQESRAAEEGLDQ
notes: Tie1, extracellular domain, expressed as Fc fusion protein; The Fc tag was detected with an anti-human IgG antibody; also called Tie1 with an Fc tag; source: bought: R&D Systems

Kd [3]: > 500 nM
B2: SVEP1 (protein)
chain: DAIHCSDPQPIENGFVEGADYRYGAMIIYSCFPGFQVLGHAMQTCEESGWSSSSPTCVPID
